In the DeepSol protein solubility set:

Experiment: soluble on expression in E. coli; label from the status in PepcDB or PDB records

| Sequence | soluble on expression in E. coli |
| --- | --- |
| PSVYDAAAQLTADVKKDLRDSWKVWGSDKKGNGVALMTTLFADNQETIGYFKRLGDVSQGMANDKLRGHSITLMYALQNFIDQLDNPDDLVCVVEKFAVNHITRKISAAEFGKINGPIKKVLASKNFGDKYANAWAKLVAVVQAAL | soluble |
| MFLDMLSLIRGQKIKLNDALQGQSSFYIQIHYQAAFDLDIASFGLDSQYRLSDERYMTFYNQPETPCQAVRLIENQNKCSRFLVDLAKLPATIQHLVLTAAIDGQNIMSQLQQVTVQILNLQLQPIAELKLDASIFDQERATMLIEIYRKEGIWRLAAIGQGFNAGLAALIQHFGGEVAEEPTAQQTTPVAPQSNIDLKKKLSLQKAEKTGNASIIDLTKKSLVQLEKKKLLGVTARVALVLDASGSMDGQYRRGDVQKVVNRLMPLAIHFDDDGSFECWAFAAETTQLDDVTLSNVNDFINSTQRGWKNWQVGARYNEEIPAIEAVINYFQKFQDQIPTYVLFISDGGVGSRRQMQKILSQAAKLPIFWQFVGIGGRNYGALEKLDEMSGRIVDNCNFFSLDRIDGVSDERLYELLLQEFPDWLIAARQHQIVRNLEHHHHHH | not soluble |
| GPGSMCNRFSCSSCRYVVPIQSRRPLTINHSFLKYNKVVDDDDEKGSSNTVKRGVKEEEEVDGGQVITVRCQNDEKQCDGDRAHYVQIQMRSADEPATTFFKCLKCGFQWKQD | soluble |
| QVPPSFFQRIYRYHREHGGRFGTVHDVGAGIGPYAGELRSQFPHVIVSDIVPKNVQLAEAHLGRDGFRYRAAPVEVADDLPPGSVDLAFATNVMHFADQHAAMQAIATQLRPGGTFACAGFGPARFDDPDIQDVWERISQQGGRILLGMAEHPPDTINVMSRSSKEYNVAPLEPQWFRPGALRIRLNMAQGGITGLLPPERQQEVTDPDFAGPRDVVVYETNEEWRFETDWEGFLQHFRSFPHAGADPAAFTGLLQELKDLLDEGRCLRGCWPATLILATR | not soluble |
| MGHHHHHHSHMTDIKILDACCGSRLFWFDKNEPHTTFMDVRQEKFEMHGKKINVNPDVIGDFRDMPFESNSFNLVVFDPPHLKYVGQNSIMKAQYGQLDKENWKEDISKGFEECMRVLKVGGTLVFKWSDCQVNVREVLSAIPFKPLFGQQRGTTHWMTFVKFELTGNGG | not soluble |
| MGSDKIHHHHHHMQFDPPLQPAILLKRYKRFLADVVTPDGRELTLHCPNTGAMTGCAAPGDTVWYSTSDNAKRKYAHTWELTETQQGAVICVNTLRANSLAKEAISAGIIPELSGYNQLKSEVKYGEENSRIDIMLQADDRQNCYIEVKSVTLAEKEYGYFPDAVTTRGQKHLRELMAVAANGDRAVILFAVLHSAIDRFSPAHHIDARYAQLLTEAQDKGVEILAWKAELSTTRMTLNKPIAVVLNPGK | not soluble |
| MSLHPHLNANLEGGVLTLAINRPEAKNALYGELYLWIAKALDEADQNKDVRVVVLRGAEHDFTAGNDMKDFMGFVQNPNAGPAGQVPPFVLLKSAARLSKPLIIAVKGVAIGIGVTILLQADLVFADNTALFQIPFVSLGLSPEGGASQLLVKQAGYHKAAELLFTAKKFNAETALQAGLVNEIVEDAYATAQATAQHLTALPLASLKQTKALMKHDLDQIIECIDHEAEIFMQRVQSPEMLEAVQAFMQKRQPDFSQEGHHHHHH | soluble |
| MGSDKIHHHHHHMTPNPRHWARELWQRSRDRGLQTHIDVLVDATGLDDYPLLAEHARQSDPPALFKLLEQTPEAALADEGPLLLRLEDGHAAWLDELLERIDCRRHLMLLFSPWPLPRLGEHLRSCTQAEWNQGRSSGVLRFYEPGLFMAVSDMLDPRQSCYLHAPVSSWHWLDRDGRPRALAGHYQAHETPPLQAALRLEAHQVAALRAWSEAEAYRREYFVLPREHGLGSQESLLQHLVQAHLAADRQGLQDFDQRDAFVAQWLREQTPGPGFSPAGTSRA | not soluble |
| MNVYNKADSFSLESDSIKDVIHDYICWLSMTDETRPSIGNVFTAMETFKIDAVRYYDGNIYDLAKDINTMSFDSFIRSLQNITSKKDKLTVYGTMGLLSIVVDINKGRDVSNIKFAAGIIILMEYIFDDTDLSHLKIALYRRIQRRYPIDDDR | not soluble |
| MKTFPLQSLTIIEAQQKQFALVDSICRHFPGSEFLTGGDLGLTPGLNQPRVTQRVEQVLADAFHAQAAALVQGAGTGAIRAGLAALLKPGQRLLVHDAPVYPTTRVIIEQMGLTLITVDFNDLSALKQVVDEQQPDAALVQHTRQQPQDSYVLADVLATLRAAGVPALTDDNYAVMKVARIGCECGANVSTFSCFKLFGPEGVGAVVGDADVINRIRATLYSGGSQIQGAQALEVLRGLVFAPVMHAVQAGVSERLLALLNGGAVPEVKSAVIANAQSKVLIVEFHQPIAARVLEEAQKRGALPYPVGAESKYEIPPLFYRLSGTFRQANPQSEHCAIRINPNRSGEETVLRILRESIASI | soluble |
| MGSDKIHHHHHHMNHFFVEFGEYEASVCEWGDKSNPQIICFHGLGSTKLSFIEVAELLKDSYHIVSFDLPGHGKTQNFEKDEDYGASHLTNWVVALLEHIGKETFHIVAHSWGASVALHYAAECPEKVNKIVLLDGGYHHGKMNADYFANLYKDAKEGECPPRSLEEEITHYENDFDEYIFDSKETFIQSEKLAYSRWSPLLERAVYDLMREEDSKVKWHATGDTARGVIKFQYTVYKTLKPHKIKSDILLLYCDLPDNYLEIRELQIVEFKKRINITTKLYKDTGHLMHWDRPEEIAEDVLHWFK | not soluble |
| TPGFSLGFIVNMRLHDHFDLRLLPTVGFYSRSIQYDFIKTSEIQTIESTFVEFPLLLKYKSQRRNNSRLYVTGGFKASIEAGAKKKQRKSTDLRTNGFDLCLDMGVGMDIYCPLFKFSPEIRYSHGLLNLLNNDPNVYSSSLSRLSSNTISLFFNFE | not soluble |
| MGSDKIHHHHHHMAVQAKQCKAVLLCGYYGEHNLGDDALLQVLLEELPSSLQPWITANDSNVIKGLAPKAQVINRRSLLESIRALFQVQGLILGGGSLLQDSTSFKSLIYYLILIVIAQQRGVPVLLWGQGLGPFRYRLSRWMVRRVLRRVQAISWRDPDSFQLAEQWCLPSPMLMAPDPVWQLPSRSWEGGQAVVLCWRSTSMLDRFGWQHLLQALEMILTDIDAPVHWLAFHQRQDEELFRKLDRQGLISSSLRSRSHSFAFDSLTEVMNQFTMARLVLPMRLHALILAQLAGSPTVALSYDPKVSSAALMANVPFTDLQSLPDIRLLAGLWGQVLDVPPDLGKIEAIRKHASQHSKIIDKVFN | not soluble |
| MYEYSFNPNIDHEPGSVESQQSTIYSDSDDSDDSFLDDEVIPPKEQAMRKIEFALADIKRQMDNKEKSLTLRISTSKSHFCLRYTAKRKGKLDRDLHCLHQVYDLLENDKRSTKRELYYEHKAVYGNQKYLDSSIKSICELLNESRANLNILSCGRGIIRGAITFLVENVGVIDARVQEVLITDALLFSNIISEADFILVVEKDTTFQKLMDENFQAMFPRGILATSKGYPDIATRNVLKMLSEKRKFPIYGLFDADPHGIEIYLTYKYGPTKEFAEGRGAFVPTIEWIGLFPTDFHRFTIDQSQCLPLVRTDFVKIEKMIPRSIQLGEIVVTRELDWMIQNKFKMELESINMCGQEYMARFLIAPRVMSIEKEIPIQPETIINEYHEDSQCSLSTDDDREAKDDDYIDSDAEEKFQNMIDNDSD | not soluble |
| MTKVERLLINYKTLEEFKKFKEYGIQELSMLEELQDNIIENDSTSPFYGIYFGDKLVARMSLYQVNGKSNPYFDNRQDYLELWKLEVLPGYQNRGYGRALVEFAKSFKMPIRTNPRMKSAEFWNKMNFKTVKYDMARDKGEDPLIWHPDMDREMTPGESA | soluble |
